Results as given in US20060121462A1, “Receptor and screening methods” (priority 2003, published 2006).

Legend:
[1] = target: human C5L2 (human) (UniProt Q9P296); experiment: competition with 50 pM 125I-C3a on C5L2-transfected RBL cells, 4 C
[2] = target: human C5L2 (human) (UniProt Q9P296); experiment: competition with 50 pM 125I-C5a on C5L2-transfected RBL cells, 4 C
[3] = target: human C5L2 (human) (UniProt Q9P296); experiment: flow cytometry, binding/uptake of FLUOS-ASP on HEK 293 cells transiently transfected with C5L2, 30 min at 37 C

Sequence of recombinant His6-tagged C3a, P01024 672-748 (ligand; other documents disagree on this pair) (P01024 672-748 limits assumed): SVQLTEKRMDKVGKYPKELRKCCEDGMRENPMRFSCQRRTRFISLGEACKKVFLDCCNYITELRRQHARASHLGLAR
Sequence of human C5L2 (human) (Q9P296 whole entry): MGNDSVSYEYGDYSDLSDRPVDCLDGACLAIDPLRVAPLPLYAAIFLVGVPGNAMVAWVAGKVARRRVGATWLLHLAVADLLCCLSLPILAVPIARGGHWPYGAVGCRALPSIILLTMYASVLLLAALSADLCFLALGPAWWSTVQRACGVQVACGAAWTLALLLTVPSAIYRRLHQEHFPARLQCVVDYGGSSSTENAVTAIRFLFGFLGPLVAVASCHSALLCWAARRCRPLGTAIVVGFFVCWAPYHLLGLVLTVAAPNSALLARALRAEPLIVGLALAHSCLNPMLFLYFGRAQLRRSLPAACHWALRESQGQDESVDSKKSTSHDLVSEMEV
Sequence of recombinant C3a des-Arg^77, P01024 672-747 (ligand; other documents disagree on this pair) (P01024 672-747 limits assumed): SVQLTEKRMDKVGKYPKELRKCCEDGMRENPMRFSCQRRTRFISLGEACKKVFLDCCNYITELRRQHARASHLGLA

Substance | IC50 [1] [µM] | pD2 [1] | IC50 [2] [µM] | pD2 [2] | EC50 [3] [µM]
recombinant C3a des-Arg^77, P01024 672-747 (ligand; other documents disagree on this pair) | 0.526 | 6.24 -log IC50 | 180 | 4.73 -log IC50 | –
plasma ASP (C3a des-Arg^77), purified from human plasma, P01024 672-747 (ligand; FLUOS (fluorescein) label in the flow cytometry assays, ^125I label in one assay; labelled residues not stated; other documents disagree on this pair) | – | – | – | – | 0.003
recombinant His6-tagged C3a, P01024 672-748 (ligand; other documents disagree on this pair) | 0.167 | 6.78 -log IC50 | 230 | 4.64 -log IC50 | –
